The subject of assay [1] is neonatal rat ventricular cardiac myocytes. Put plainly: Acidification-induced uncoupling (pH 6.2), dual-cell patch clamp in neonatal rat ventricular cardiac myocytes. The assay is classed as cell-based. Particulars: peptide 0.1 mM buffered to pH 6.2. The procedure: Lower graph: Time course of acidification-induced uncoupling in neonatal rat ventricular cardiac myocytes. Cell pairs were recorded with patch pipettes that contained (i) ZP2771 (0.1 mM, buffered to pH 6.2; uppermost curve; filled square symbols), (ii) linear peptide RRPPYR (0.1 mM buffered to pH 6.2; middle curve; filled triangle symbols), or (iii) only the internal pipette filling solution buffered to pH 6.2 (lowermost curve; filled circle symbols). Experiments were conducted using the dual-cell patch clamp technique.
(§1) Patch clamp experiments were conducted in N2a cells transiently transfected with Cx43. In all cases, the dual-whole-cell voltage clamp technique was used to record gap junction currents. Specifics for cell culture, transfection and recordings are described in Shibayama et al. (Identification of a novel peptide that interferes with the chemical regulation of connexin 43. Circ Res 2006 98:1365-72). Octanol superfusion was initiated 5 minutes after patch break and continued for 10 minutes. Concentration of octanol was 1.5 mM in all experiments. Peptides were diluted in the internal pipette solution to a final concentration of 100 μM. A total of 20 experiments were carried out where octanol-induced uncoupling was tested in the absence of peptides. These experiments were averaged, and data used as control for comparison with those series where a given peptide was assessed. Patch clamp experiments were also conducted (cf. FIG. 6 herein) using ventricular myocytes from neonatal Sprague-Dawley rats (rats supplied by Charles River, Mass. USA), isolated and cultured according to Rohr et al. (see Circ. Res. 1991; 68: 114-130, and J. Cardiovasc. Electrophysiol. 1995; 6: 551-568).
(Patch clamp records ionic current or voltage across a cell membrane.)

Assay [2] concerns the target T1, Cx43 (Homo sapiens, UniProt P17302).
T1 construct: expressed in transfected cells; host or cells: N2a (mouse neuroblastoma) cells, transiently transfected
Briefly: Acidification-induced uncoupling (pH 6.2), dual-cell patch clamp in Cx43-expressing N2A cell pairs. Particulars: peptide 0.1 mM in patch pipette, N2A cells. How it is done:
FIG. 6. Upper graph: Time course of acidification-induced uncoupling in human Cx43-expressing N2A cells. Cell pairs were recorded with patch pipettes that contained either ZP2771 (0.1 mM; upper curve), or only the internal pipette filling solution buffered to pH 6.2 (control; lower curve). Experiments were conducted using the dual-cell patch clamp technique.
as §1, with “Patch clamp experiments were also conducted (cf. FIG. 6 herein) using ventricular myocytes from neonatal Sprague-Dawley rats (rats supplied by Charles River, Mass. USA), isolated and cultured according to Rohr et al. (see Circ. Res. 1991; 68: 114-130, and J. Cardiovasc. Electrophysiol. 1995; 6: 551-568).” left out

In assay [3] the target is T1, Cx43. Briefly: Octanol-induced uncoupling, dual-cell patch clamp, junctional conductance (Gj) in Cx43-expressing N2A cell pairs. Particulars: for cells remaining coupled ten minutes after the onset of octanol superfusion: peptide 100 μM in pipette, 1.5 mM octanol, 10 min; for effect on octanol-induced decrease of Gj compared to control (in words): 1.5 mM octanol perfusion. The assay is classed as cell-based, mouse. How it is done: FIG. 2. Time course of octanol-induced uncoupling in human Cx43-expressing N2A cells. Cell pairs were recorded with patch pipettes that contained either ZP2778 (0.1 mM; upper curve/trace), or only the internal pipette filling solution (control; lower curve/trace). Experiments were conducted using the dual-cell patch clamp technique, and 1.5 mM octanol perfusion was started at Time=0.
as §1
Junctional conductance (Gj) was measured in N2a cell pairs expressing Cx43. Patch pipettes were filled with an internal solution containing the specific peptide under study, and the time course and extent of octanol-induced uncoupling was compared to that observed in the absence of the peptide. FIGS. 2-5 show average measurements of junctional conductance and percent of coupled cells recorded at various times after the onset of octanol superfusion for the cyclized peptides ZP2769, ZP2771, ZP2778, ZP2782 and for the dissolution medium (internal pipette solution) used as control. […] For ZP2778 (FIG. 2), 60% of the cells remained coupled, while 20% remained coupled for ZP2782 (FIG. 4).

For the next assay, the target named is recombinant rat Cx43CT (Rattus norvegicus, UniProt P08050). Briefly: Surface plasmon resonance (SPR) binding of peptides to immobilised Cx43CT. To be noted: for binding to the Cx43CT (in words): SPR, FIG. 1 / Table 2; for (ru * 100)/Mw: response normalised to molecular weight. An excerpt:
FIG. 1. SPR results for compounds (peptides) ZP2769 and ZP2771. Recombinant rat Cx43CT was covalently bound to a carboxylmethyl dextran matrix and used as ligand. Peptides were presented to the bound ligand, and the amplitude of the response was subtracted from that obtained from a control chamber with no ligand. If no change in angle of resonance was observed, this was taken as an indication of absence of binding. The amplitude of the change in angle of resonance (expressed as “response units”) is a function of the molecular mass of the analyte, and for comparison purposes response units were therefore normalized taking into account the molecular weight of the tested compound. Change in angle of incidence of resonance (in “resonance units”) was plotted against time after onset of cyclic peptide exposure. The various curves correspond to different applied concentrations of the peptide in question, as follows:
Compounds of the present invention may be tested for binding to the carboxyl terminal domain of Cx43 using Surface Plasmon Resonance (“SPR”). SPR is a technique that was used to identify the original RXPE sequence (Shibayama et al., “Identification of a Novel Peptide that Interferes with the Chemical Regulation of Connexin-43,” Circ. Res. 98:1365-72 (2006)). The concentration of the compound relative to the amplitude of the response in arbitrary units is measured.
Recombinant Cx43CT is covalently bound to a carboxylmethyl dextran matrix (Salemon et al., “Surface Plasmon Resonance Spectroscopy as a Tool for Investigating the Biochemical and Biophysical Properties of Membrane Protein Systems. II: Applications to Biological Systems,” Biochim. Biophys. Acta 1331(2):131-152 (1997)). Specific peptide compounds are presented and, when feasible, dissociation constants (KD) are calculated from the time course of binding and unbinding of the ligand, using a 1:1 (Langmuir) association and dissociation kinetic model (Biacore software package). In both phases (association and dissociation), the first 5-8 seconds of recording are not included in the fit, to avoid artifacts resulting from peptide distribution within the flow cells (Lang et al., “Surface Plasmon Resonance as a Method to Study the Kinetics and Amplitude of Protein-protein Binding,” in Practical Methods in Cardiovascular Research 936-947 (Stefan Dhein, Friedrich Wilhelm Mohr & Mario Delmar eds., 2005). In the present experiments recombinant rat Cx43CT was covalently bound to a carboxylmethyl-dextran matrix and used as ligand.
Examples of the cyclic peptide compounds of the present invention were presented to the bound ligand, and the amplitude of the response was subtracted from that obtained from a control chamber with no ligand. No change in angle of resonance was taken as an indication of absence of binding. The amplitude of the change in angle of resonance (expressed as “response units”) is a function of the molecular mass of the analyte and for comparison purposes response units were normalized taking account of the molecular weight of the tested compound. Change in angle of incidence of resonance (in “resonance units”) was plotted against time after onset of cyclic peptide exposure.
SPR allows for assessment of ligand-analyte binding in real time, and was used for characterization of two of the cyclic peptide compounds of the present invention. Cx43CT was covalently bound to the matrix of a sensor chip. […] In FIG. 1, the change in angle of incidence of resonance (in “resonance units”) is plotted against time after onset of cyclic peptide exposure. Different concentrations were applied, as indicated.
A general note: SPR reads the build-up and loss of mass on a sensor chip optically.

Where [4] appears, read: peptide 0.1 mM in patch pipette.

Chain of recombinant rat Cx43CT (P08050 229-382 limits assumed): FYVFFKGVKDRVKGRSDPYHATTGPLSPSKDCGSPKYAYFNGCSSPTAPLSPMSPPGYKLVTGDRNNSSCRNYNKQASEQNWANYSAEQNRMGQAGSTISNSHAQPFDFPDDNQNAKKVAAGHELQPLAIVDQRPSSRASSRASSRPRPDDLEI
T1 sequence (P17302 2-382 limits assumed): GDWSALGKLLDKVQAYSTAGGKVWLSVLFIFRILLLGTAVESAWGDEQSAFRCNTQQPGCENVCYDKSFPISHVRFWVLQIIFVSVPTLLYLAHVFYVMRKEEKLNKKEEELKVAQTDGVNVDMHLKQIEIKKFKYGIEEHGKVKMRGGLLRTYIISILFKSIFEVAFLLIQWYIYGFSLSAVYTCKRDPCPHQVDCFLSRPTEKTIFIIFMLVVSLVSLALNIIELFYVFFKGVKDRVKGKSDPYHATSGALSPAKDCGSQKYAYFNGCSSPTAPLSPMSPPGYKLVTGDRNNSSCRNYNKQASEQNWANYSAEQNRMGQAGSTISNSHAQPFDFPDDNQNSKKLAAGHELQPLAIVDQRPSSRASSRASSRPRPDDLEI

With Cyclo(RRPPYRQ) (cyclic) [ZP2771], the “Gj fifteen minutes after patch break” value in assay [1] is listed as “approximately 0.47”. Besides, the “effect on acidification-induced decrease of Gj compared to linear peptide and control (in words)” value in assay [1] is given as “significantly (p=0.006) prevented the decrease of Gj”. The “Gj fifteen minutes (900 sec) after patch break” value in the assay with Cx43 [2] is “approximately 0.49”. For the same substance, the “effect on acidification-induced decrease of Gj compared to control (in words)” value in the assay with Cx43 [2] is “significantly (p=0.002) prevented the decrease of Gj”. In addition, the “cells remaining coupled ten minutes after the onset of octanol superfusion” value (“cells remaining coupled ten minutes” for short) with Cx43 [3] is “all cells remained coupled”. For the same substance, the “effect on octanol-induced decrease of Gj compared to control (in words)” value (from here on “effect on octanol-induced decrease of Gj”) in the assay with Cx43 [3] (setting [4]) is “significantly (p<0.05) prevented the decrease of Gj”. For the same substance, the “Gj at the end of the experiment” value in the assay with Cx43 [3] (peptide 0.1 mM in patch pipette, after 10 minutes of 1.5 mM octanol perfusion) is “approximately 0.65”. In addition, the “binding to the Cx43CT (in words)” value with recombinant rat Cx43CT was “significant binding”. For the same substance, the “Resonance Units (ru)” value with recombinant rat Cx43CT (peptide conc 0.008 mM) came out at 27.6 ru; in the assay with recombinant rat Cx43CT (peptide conc 0.016 mM) it was 58.1 ru; with recombinant rat Cx43CT (peptide conc 0.031 mM), 95.8 ru; with recombinant rat Cx43CT (peptide conc 0.063 mM), 192.4 ru; in the assay with recombinant rat Cx43CT (peptide conc 0.125 mM) it was 323.6 ru; with recombinant rat Cx43CT (peptide conc 0.250 mM), 574.0 ru. The figures for the “Resonance Units (ru)” value with recombinant rat Cx43CT (peptide conc 0.500 mM) and with recombinant rat Cx43CT (peptide conc 1.000 mM) were 896.0 ru and 1253.0 ru, respectively. Moreover, the “(ru * 100)/Mw” value turned out to be 2.89 with recombinant rat Cx43CT (peptide conc 0.008 mM); 6.09 with recombinant rat Cx43CT (peptide conc 0.016 mM); 10.05 with recombinant rat Cx43CT (peptide conc 0.031 mM); 20.18 in the assay with recombinant rat Cx43CT (peptide conc 0.063 mM); 33.94 with recombinant rat Cx43CT (peptide conc 0.125 mM); 60.20 with recombinant rat Cx43CT (peptide conc 0.250 mM). Also, the “(ru * 100)/Mw” value is 93.97 in the assay with recombinant rat Cx43CT (peptide conc 0.500 mM) and 131.41 in the assay with recombinant rat Cx43CT (peptide conc 1.000 mM).
As for RRPPYR [reference compound], the “Gj fifteen minutes after patch break” value in assay [1] is given as “approximately 0.17”.
Consider cyclo(RRPPWN) [ZP2782], for which, on Cx43 [3], the “cells remaining coupled ten minutes” value is recorded as 20%. Also, on Cx43 [3] (setting [4]), the “effect on octanol-induced decrease of Gj” value is recorded as “reduction in the decrease of Gj”.
Taken in the same sequence, the figures for cyclo(RRPPYN) [ZP2778] were 60% and “significantly (p<0.05) prevented the decrease of Gj”.
Take cyclo(RRPPYQ) [ZP2769]: on Cx43 [3], the “cells remaining coupled ten minutes” value was “all cells remained coupled”. Besides, the “effect on octanol-induced decrease of Gj” value on Cx43 [3] (setting [4]) is listed as “marked reduction in the decrease of Gj”. For the same substance, at recombinant rat Cx43CT, the “binding to the Cx43CT (in words)” value is on record as “significant binding”. The “Resonance Units (ru)” value was 18.6 ru at recombinant rat Cx43CT (peptide conc 0.063 mM); 29.6 ru on recombinant rat Cx43CT (peptide conc 0.125 mM); 55.8 ru on recombinant rat Cx43CT (peptide conc 0.250 mM); 101.9 ru at recombinant rat Cx43CT (peptide conc 0.500 mM); 196.2 ru on recombinant rat Cx43CT (peptide conc 1.000 mM). In addition, the “(ru * 100)/Mw” value at recombinant rat Cx43CT (peptide conc 0.063 mM) stood at 2.33; on recombinant rat Cx43CT (peptide conc 0.125 mM) it was 3.71; at recombinant rat Cx43CT (peptide conc 0.250 mM), 6.99; on recombinant rat Cx43CT (peptide conc 0.500 mM) it was 12.77; on recombinant rat Cx43CT (peptide conc 1.000 mM), 24.59.
